{"source": "patent US20170145086A1", "about": "(VISTERRA, published 2017)", "key": {"[1]": {"target": "human BAFF (TNFSF13B, AB Biosciences) (human, UniProt Q9Y275 134-285, limits assumed)", "sequence (Q9Y275 134-285 limits assumed)": "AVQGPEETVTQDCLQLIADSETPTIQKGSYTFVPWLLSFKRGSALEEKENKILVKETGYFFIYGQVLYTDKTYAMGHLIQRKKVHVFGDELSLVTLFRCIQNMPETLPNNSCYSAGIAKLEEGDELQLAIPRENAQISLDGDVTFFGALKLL", "assay": "indirect ELISA, cytokine coated", "procedure": "(§1) Selected anti-APRIL antibodies were evaluated for potential cross-reactivity with other members of the TNFa superfamily (TNFSF) family of cytokines, including: human TNFα (TNFSF2; Adipogen), human […] (TNFSF4, Adipogen), human FasL (TNFSF6, Adipogen), human TRAIL (TNFSF10, Adipogen), human RANKL (TNFSF11; Adipogen), human Tweak (TNFSF12; Abcam), human and mouse BAFF (TNFSF13B, AB Biosciences and Adipogen, respectively), and human LIGHT (TNFSF14, Adipogen). These cytokines share variable degree of sequence as well as higher order structural homologies. Among them, BAFF appears to be the most closely related to APRIL, with 29% identity and 53% amino acid sequence similarity.\n(§2) Binding was evaluated by an indirect ELISA protocol using similar methods described for evaluation of APRIL binding; cytokines were immobilized to ELISA plate at 50 ng per well and then exposed to a solution of each of the test antibodies at a fixed concentration of 10 μg/ml Anti-human or anti-mouse Ig-HRP polyclonal antibody conjugates (Jackson Laboratories) were used for detection of antibody binding. The results presented in FIG. 36 indicated eleven of the twelve antibodies tested in this assay to specifically bind APRIL with no measurable cross-reactivity with the other TNFSF members substantially above assay background."}, "[2]": {"target": "T1, human FasL (TNFSF6, Adipogen) (human, UniProt P48023 103-281, limits assumed)", "T1 sequence (looked up)": "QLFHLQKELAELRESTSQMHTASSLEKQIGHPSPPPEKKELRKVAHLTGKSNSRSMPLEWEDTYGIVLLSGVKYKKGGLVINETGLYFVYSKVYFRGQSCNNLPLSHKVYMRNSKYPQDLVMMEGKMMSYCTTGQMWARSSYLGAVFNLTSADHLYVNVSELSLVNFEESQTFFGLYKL", "assay": "indirect ELISA, cytokine coated", "procedure": "as §1, §2"}, "[3]": {"target": "T2, human RANKL (TNFSF11; Adipogen) (human, UniProt O14788 152-317, limits assumed)", "T2 sequence (looked up)": "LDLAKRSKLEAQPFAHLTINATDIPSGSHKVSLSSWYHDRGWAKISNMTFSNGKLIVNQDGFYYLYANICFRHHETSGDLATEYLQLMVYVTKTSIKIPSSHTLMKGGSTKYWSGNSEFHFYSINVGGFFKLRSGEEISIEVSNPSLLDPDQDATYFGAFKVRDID", "assay": "indirect ELISA, cytokine coated", "procedure": "as §1, §2"}, "[4]": {"target": "mouse BAFF (TNFSF13B, Adipogen) (mouse, UniProt Q9WU72 127-309, limits assumed)", "sequence (Q9WU72 127-309 limits assumed)": "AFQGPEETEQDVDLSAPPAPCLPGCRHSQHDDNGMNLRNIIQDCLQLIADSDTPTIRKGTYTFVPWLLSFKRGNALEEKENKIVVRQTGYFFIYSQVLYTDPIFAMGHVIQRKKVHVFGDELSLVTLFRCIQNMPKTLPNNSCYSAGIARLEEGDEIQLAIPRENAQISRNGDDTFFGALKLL", "assay": "indirect ELISA, cytokine coated", "procedure": "as §1, §2"}, "[5]": {"target": "T3, HA-GCN4 mAPRIL (amino acid residues 96-241) (mouse, UniProt Q9D777 96-241, Assembles as a homotrimer through the GCN4 zipper; one protomer is given.)", "T3 construct": "Bought (R&D Systems); also called HA-tagged mouse APRIL (R&D Systems); recombinant mouse APRIL; not shown: N-terminal HA tag and GCN4 isoleucine-zipper trimerisation domain, with any linker, of the bought R&D Systems protein", "T3 sequence": "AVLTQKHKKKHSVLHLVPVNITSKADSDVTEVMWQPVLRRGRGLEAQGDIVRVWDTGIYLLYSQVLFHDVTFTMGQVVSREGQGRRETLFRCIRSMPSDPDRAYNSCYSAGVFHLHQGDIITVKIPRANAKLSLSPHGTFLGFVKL", "assay": "blocking ELISA; blocked: mouse APRIL binding to BCMA"}, "[6]": {"target": "T4, HA-GCN4 hAPRIL (amino acid residues 105-250) (human, UniProt O75888 105-250)", "T4 construct": "Bought (R&D Systems); also called HA-tagged GCN4 human APRIL; HA-GCN4-huAPRIL; not shown: N-terminal HA tag; GCN4 isoleucine zipper oligomerization domain", "T4 sequence": "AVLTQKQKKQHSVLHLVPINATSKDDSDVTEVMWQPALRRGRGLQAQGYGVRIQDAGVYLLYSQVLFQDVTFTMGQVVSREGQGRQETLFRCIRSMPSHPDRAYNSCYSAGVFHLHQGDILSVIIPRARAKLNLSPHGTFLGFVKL", "assay": "blocking ELISA; blocked: human APRIL binding to human BCMA-Fc", "design": "concentration or dose not given beside the values", "procedure": "FIGS. 19A-19B depict the antibody inhibition of APRIL binding to TNFSF receptors TACI (FIG. 19A) and BCMA (FIG. 19B). Assay is based on blocking ELISA using recombinant human APRIL (R&D Systems) and Human TACI-Fc. Inhibition was analyzed by non-linear regression using a four parameter fit.\nRecombinant TACI-Fc or BCMA-Fc was coated on 96 well plates in 0.1 M carbonate-bicarbonate buffer (pH 9.6), overnight at 4° C. Plates were washed three times with 1×PBST (PBS+0.025% Tween 20) followed by blocking with 1% BSA in 1×PBS, 37° C. for 1 hour. All subsequent wash steps were carried out with 1×PBST. To assess antibody blocking, either 15 ng/mL or 50 ng/mL HA-GCN4-huAPRIL was preincubated with varying antibody concentrations ranging from 0.03-30 μg/mL in binding buffer comprised of 1% BSA and 0.025% Tween-20 in 1×PBS. Preincubation was carried out at 30° C. for 1 hour with mixing. Antibody-APRIL premix with 50 ng/mL APRIL or 15 ng/mL APRIL was then added to TACI-Fc coated or BCMA-Fc coated plates, respectively, and incubated for an additional hour at 30° C. HA-tagged APRIL binding to either receptor was quantified using a goat polyclonal anti-HA tag-HRP antibody (Abcam) added at a 1:10000 dilution followed by colorimetric development using 100 μl/well of freshly prepared TMB substrate (KPL) carried out for up to 30 minutes at room temperature before quenching enzymatic reaction by the addition of 1N sulfuric acid. ELISA signal was quantified by absorbance at 450 nm. ELISA data was analyzed by non-linear regression. IC₅₀ values were calculated based on a 4 parameter fit of antibody titration curves. […] Non-blocking antibodies Aprly-1 or Aprly-5 (Enzo Biosciences) were used as negative controls. Mouse specific, blocking antibody aprily-1-1 (Adipogen) was generally used as a positive control in experiments using mouse APRIL (HA-GCN4-mAPRIL)."}}, "data": [{"binder": "monoclonal antibody 4540 (antibody, V domains shown, mouse-derived) VH: QVQLQQSGPELVKPGASVKISCKASGYTFADYYINWVKQRPGQGLEWIGWIFPGSGSTYYNEKFKGKATLTVDKSSSTAYMLLSSLTSEDSAVYFCARGDSGRAMDYWGQGTSVTVSS VL: DIQMTQSPSSLSASLGGKVTITCKASQDINKYIAWYQHKPGKGPRLLIHYTSTLQSGIPSRFSGSGSGRDYSFSISNLEPEDNATYYCLQYDNLLTFGAGTKLELK", "values": [{"measurement": "binding result", "setting": "[1]", "result": "no binding (tested: 10 µg/ml (p-1128))"}, {"measurement": "binding result", "setting": "[2]", "result": "no binding (tested: 10 µg/ml (p-1128))"}, {"measurement": "binding result", "setting": "[3]", "result": "no binding (tested: 10 µg/ml (p-1128))"}, {"measurement": "binding result", "setting": "[4]", "result": "no binding (tested: 10 µg/ml (p-1128))"}, {"measurement": "IC50 (read off the curve)", "setting": "[5]", "result": "~0.3", "unit": "µg/mL"}, {"measurement": "% Inhibition", "setting": "[6]", "result": 98, "unit": "%"}]}, {"binder": "monoclonal antibody 2218 (antibody, mouse IgG2, V domains shown) VH: DVQLQESGPGLVKPSQSLSLTCSVTGYSITSGYYWNWIRQFPGNKLEWMGYISYDGYNNYNPSLKNRISITRDTSKNQFFLKLNSVTTEDTATYYCANYYDYEDWYFGVWGTGTTVTVSS VL: DIVLTQSPASLAMSLGKRATISCRASESVSIIGTNSIHWYQQKPGQPPKLLIYHASNLETGVPARFSGSGSRTDFTLTIDPVEEDDVAIYYCLQSRKIPYTFGGGTKLEIK", "values": [{"measurement": "binding result", "setting": "[1]", "result": "no binding (tested: 10 µg/ml (p-1128))"}, {"measurement": "binding result", "setting": "[2]", "result": "no binding (tested: 10 µg/ml (p-1128))"}, {"measurement": "binding result", "setting": "[3]", "result": "no binding (tested: 10 µg/ml (p-1128))"}, {"measurement": "binding result", "setting": "[4]", "result": "no binding (tested: 10 µg/ml (p-1128))"}, {"measurement": "% Inhibition", "setting": "[6]", "result": 99, "unit": "%"}]}, {"binder": "monoclonal antibody 3530 (antibody, mouse IgG2, V domains shown) VH: QVQLQQSGAELVRPGASVKLSCKASGYTFTDHEMHWVRQTPVHGLEWIGVIDPDTGDTTYNQKFKGKATLTADKSSSTAYMDLRSLTSEDSAVFYCTRWTGGDYWGHGTTLTVSS VL: DAVMTQTPLSLSVTIGQPASISCKSSQSLLYSDGKTYLNWFQQRPGQSPKRLMYQVSKLDPGIPDRFSGSGSETDFTLKISRVEAEDLGVYYCLQGTYYPYTFGSGTKLEIK", "values": [{"measurement": "binding result", "setting": "[1]", "result": "no binding (tested: 10 µg/ml (p-1128))"}, {"measurement": "binding result", "setting": "[2]", "result": "no binding (tested: 10 µg/ml (p-1128))"}, {"measurement": "binding result", "setting": "[3]", "result": "no binding (tested: 10 µg/ml (p-1128))"}, {"measurement": "binding result", "setting": "[4]", "result": "no binding (tested: 10 µg/ml (p-1128))"}, {"measurement": "IC50 (read off the curve)", "setting": "[5]", "result": "~0.3", "unit": "µg/mL"}, {"measurement": "% Inhibition", "setting": "[6]", "result": 37, "unit": "%"}]}, {"binder": "monoclonal antibody 3631 (antibody, V domains shown, mouse-derived) VH: EIQLQQSGPELVKPGASVKVSCKASGYSFTDYNIYWVKQSHGKSLEWIGYIDPSNGGPGYNQKFRGKATLTVDKSSSTAFLHLNSLTSEDSAVYYCARRDNYGSGTMDYWGQGTSVTVSS VL: DIVMTQSQKFMSTSVGDRVSITCKASQNVGTDVSWYQQKPGKSPKPLIYWASNRFTGVPDRFIGSGSGTDFTLTISNVQSEDLADYFCEQYSIYPLTFGAGTKLELK", "values": [{"measurement": "binding result", "setting": "[2]", "result": "no binding (tested: 10 µg/ml (p-1128))"}, {"measurement": "binding result", "setting": "[3]", "result": "no binding (tested: 10 µg/ml (p-1128))"}, {"measurement": "binding result", "setting": "[5]", "result": "binds"}, {"measurement": "% Inhibition", "setting": "[6]", "result": 100, "unit": "%"}]}, {"binder": "monoclonal antibody 3732 (antibody, V domains shown, mouse-derived) VH: EIQLQQSGPELVKPGASVKVSCKASGYSFTDDNMYWVKQSHGKSLEWIGYIDPLNGGTGYNQKFKGKATLTVDKSSSTAFLHLNSLTSEDSAVYYCARRDNYATGTMDYWGQGTSVTVSS VL: DIVMTQSQKFMSTSVGDRVSITCKASKNVGTDVSWYQQKPGKSPKPLIYWASNRFTGVPDRFTGSGSGTDFTLTINNVQSEDLADYFCEQYSSYPLTFGAGTKLELK", "values": [{"measurement": "binding result", "setting": "[1]", "result": "no binding (tested: 10 µg/ml (p-1128))"}, {"measurement": "binding result", "setting": "[2]", "result": "no binding (tested: 10 µg/ml (p-1128))"}, {"measurement": "binding result", "setting": "[3]", "result": "no binding (tested: 10 µg/ml (p-1128))"}, {"measurement": "binding result", "setting": "[4]", "result": "no binding (tested: 10 µg/ml (p-1128))"}, {"measurement": "binding result", "setting": "[5]", "result": "binds"}, {"measurement": "% Inhibition", "setting": "[6]", "result": 100, "unit": "%"}]}, {"binder": "monoclonal antibody 3833 (antibody, V domains shown, mouse-derived) VH: QVQLQQSGAELVRPGTSVKMSCKAAGYTFTNYWIGWVKQRPGHGLEWIGDIYPGGIGGGYTKYNEKFKGKATLTADTSSSTAYMQLGSLTSEDSAIYFCSRSETGRAMDYWGQGTSVTVSS VL: DIQMTQSPSSLSASLGGKVTITCKASQDINKYIAWYQHKPGKGPRLLIHYTSTLKPGIPSRFSGSGSGRDYSFSISDLEPEDIATYYCLQYDNLNTFGGGTKLEIK", "values": [{"measurement": "binding result", "setting": "[1]", "result": "no binding (tested: 10 µg/ml (p-1128))"}, {"measurement": "binding result", "setting": "[3]", "result": "no binding (tested: 10 µg/ml (p-1128))"}, {"measurement": "binding result", "setting": "[4]", "result": "no binding (tested: 10 µg/ml (p-1128))"}, {"measurement": "IC50 (read off the curve)", "setting": "[5]", "result": "~0.06", "unit": "µg/mL"}, {"measurement": "% Inhibition", "setting": "[6]", "result": 96, "unit": "%"}]}, {"binder": "4237 (antibody, V domains shown, also called monoclonal antibody 4237) VH: QAHLKESGPGLVAPSQSLSITCTVSGFSLTDYDVHWVRQSPGKGLEWLGVIWNDGSTDYNTAFISRLTISKDNSKSQVFFKMNSLQADDTAIYYCARNWYGGYWFAYWGQGTLVTVSA VL: DIQMTQSPASLSASAGETVTITCRSSENIYSYLAWYQQKQGKSPQLLVYNANALAEGVPSRFSGSGSVTQFSLKINSLQPEDFGSYYCQHHYGTPFTFGSGTKLEIK", "values": [{"measurement": "binding result", "setting": "[1]", "result": "no binding (tested: 10 µg/ml (p-1128))"}, {"measurement": "binding result", "setting": "[2]", "result": "no binding (tested: 10 µg/ml (p-1128))"}, {"measurement": "binding result", "setting": "[3]", "result": "no binding (tested: 10 µg/ml (p-1128))"}, {"measurement": "binding result", "setting": "[4]", "result": "no binding (tested: 10 µg/ml (p-1128))"}, {"measurement": "% Inhibition", "setting": "[6]", "result": 93, "unit": "%"}]}]}
